The text below walks through data of patent US20230357431A1.

Assay [1] deals with VH2VL1-CD8ATD-CD137CSD-CD3zSSD fusion (anti-P329G chimeric antigen receptor).
Assay [2] concerns the target VH3VL1-CD8ATD-CD137CSD-CD3zSSD fusion (anti-P329G chimeric antigen receptor).
Assay [3] has as its target VL1VH3-CD8ATD-CD137CSD-CD3zSSD fusion (anti-P329G chimeric antigen receptor, VLVH orientation).
For assay [4], the target named is VH1VL1-CD8ATD-CD137CSD-CD3zSSD fusion (anti-P329G chimeric antigen receptor).
Assay [5] concerns the target VH2VL1-CD8ATD-CD137CSD-CD3zSSD fusion (anti-P329G chimeric antigen receptor). The source holds these as a separate data set.
The target of assay [6] is VH3VL1-CD8ATD-CD137CSD-CD3zSSD fusion (anti-P329G chimeric antigen receptor). This is another data set of the same source.
The target in assay [7] is VL1VH3-CD8ATD-CD137CSD-CD3zSSD fusion (anti-P329G chimeric antigen receptor, VLVH orientation). The source holds these as a separate data set.
Assay [8] addresses VH1VL1-CD8ATD-CD137CSD-CD3zSSD fusion (anti-P329G chimeric antigen receptor). The source holds these as a separate data set.
For assay [9], the target named is VL1VH3-CD8ATD-CD137CSD-CD3zSSD fusion (anti-P329G chimeric antigen receptor, VLVH orientation). This is another data set of the same source.
Assay [10] deals with VH1VL1-CD8ATD-CD137CSD-CD3zSSD fusion (anti-P329G chimeric antigen receptor). This is another data set of the same source.
For assay [11], the target named is VH2VL1-CD8ATD-CD137CSD-CD3zSSD fusion (anti-P329G chimeric antigen receptor). The source holds these as a separate data set.
The target of assay [12] is VH3VL1-CD8ATD-CD137CSD-CD3zSSD fusion (anti-P329G chimeric antigen receptor). The source holds these as a separate data set.
The target in assay [13] is VL1VH3-CD8ATD-CD137CSD-CD3zSSD fusion (anti-P329G chimeric antigen receptor, VLVH orientation). The source holds these as a separate data set.
Assay [14] addresses VH1VL1-CD8ATD-CD137CSD-CD3zSSD fusion (anti-P329G chimeric antigen receptor). The source holds these as a separate data set.
Assay [15] deals with VH2VL1-CD8ATD-CD137CSD-CD3zSSD fusion (anti-P329G chimeric antigen receptor). The source holds these as a separate data set.
Assay [16] addresses VH3VL1-CD8ATD-CD137CSD-CD3zSSD fusion (anti-P329G chimeric antigen receptor). The source holds these as a separate data set.
The target of assay [17] is VL1VH3-CD8ATD-CD137CSD-CD3zSSD fusion (anti-P329G chimeric antigen receptor, VLVH orientation). The source holds these as a separate data set.

Like-named read-outs stand apart in the source and are kept apart here.

VH3VL1-CD8ATD-CD137CSD-CD3zSSD fusion (anti-P329G chimeric antigen receptor), sequence (chain, as listed by the source P329G P329G): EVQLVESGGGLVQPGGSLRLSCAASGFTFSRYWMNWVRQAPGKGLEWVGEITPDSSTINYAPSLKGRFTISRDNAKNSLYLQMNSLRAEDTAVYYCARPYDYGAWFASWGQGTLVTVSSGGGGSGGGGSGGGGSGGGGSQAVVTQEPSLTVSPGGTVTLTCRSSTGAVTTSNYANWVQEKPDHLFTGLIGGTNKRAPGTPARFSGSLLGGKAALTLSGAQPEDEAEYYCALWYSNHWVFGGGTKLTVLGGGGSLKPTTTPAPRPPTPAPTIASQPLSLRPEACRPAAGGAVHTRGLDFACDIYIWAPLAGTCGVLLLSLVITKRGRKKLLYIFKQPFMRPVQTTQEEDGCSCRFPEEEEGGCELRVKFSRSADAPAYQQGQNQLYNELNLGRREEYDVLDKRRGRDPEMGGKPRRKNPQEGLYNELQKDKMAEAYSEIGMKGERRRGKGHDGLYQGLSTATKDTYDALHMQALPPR
VH2VL1-CD8ATD-CD137CSD-CD3zSSD fusion (anti-P329G chimeric antigen receptor), sequence (chain, as listed by the source P329G P329G): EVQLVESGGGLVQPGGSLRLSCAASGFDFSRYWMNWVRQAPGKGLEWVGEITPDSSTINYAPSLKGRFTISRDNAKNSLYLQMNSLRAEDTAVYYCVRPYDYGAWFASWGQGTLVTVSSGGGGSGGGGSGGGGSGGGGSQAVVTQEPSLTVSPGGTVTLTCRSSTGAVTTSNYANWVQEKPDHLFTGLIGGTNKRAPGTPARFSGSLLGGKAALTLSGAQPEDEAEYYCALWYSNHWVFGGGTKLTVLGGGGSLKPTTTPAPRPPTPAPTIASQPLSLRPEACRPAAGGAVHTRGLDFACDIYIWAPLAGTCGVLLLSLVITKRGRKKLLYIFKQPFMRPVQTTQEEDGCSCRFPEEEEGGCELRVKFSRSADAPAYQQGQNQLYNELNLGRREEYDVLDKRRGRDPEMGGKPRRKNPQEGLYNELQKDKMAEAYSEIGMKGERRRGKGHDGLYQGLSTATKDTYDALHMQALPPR
VH1VL1-CD8ATD-CD137CSD-CD3zSSD fusion (anti-P329G chimeric antigen receptor), sequence (chain, as listed by the source P329G P329G): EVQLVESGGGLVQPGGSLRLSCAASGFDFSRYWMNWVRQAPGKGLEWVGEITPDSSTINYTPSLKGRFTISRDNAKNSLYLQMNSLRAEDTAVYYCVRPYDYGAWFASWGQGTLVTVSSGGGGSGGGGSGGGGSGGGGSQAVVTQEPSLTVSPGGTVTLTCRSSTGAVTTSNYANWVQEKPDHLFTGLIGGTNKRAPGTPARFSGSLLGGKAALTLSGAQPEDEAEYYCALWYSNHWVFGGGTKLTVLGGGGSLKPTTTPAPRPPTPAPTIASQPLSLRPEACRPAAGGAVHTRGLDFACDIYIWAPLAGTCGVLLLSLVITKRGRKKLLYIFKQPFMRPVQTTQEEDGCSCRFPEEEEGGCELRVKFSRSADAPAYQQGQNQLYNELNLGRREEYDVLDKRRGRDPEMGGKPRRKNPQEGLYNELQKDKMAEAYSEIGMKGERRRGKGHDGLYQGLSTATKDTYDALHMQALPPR
VL1VH3-CD8ATD-CD137CSD-CD3zSSD fusion (anti-P329G chimeric antigen receptor, VLVH orientation), sequence (chain, as listed by the source P329G P329G): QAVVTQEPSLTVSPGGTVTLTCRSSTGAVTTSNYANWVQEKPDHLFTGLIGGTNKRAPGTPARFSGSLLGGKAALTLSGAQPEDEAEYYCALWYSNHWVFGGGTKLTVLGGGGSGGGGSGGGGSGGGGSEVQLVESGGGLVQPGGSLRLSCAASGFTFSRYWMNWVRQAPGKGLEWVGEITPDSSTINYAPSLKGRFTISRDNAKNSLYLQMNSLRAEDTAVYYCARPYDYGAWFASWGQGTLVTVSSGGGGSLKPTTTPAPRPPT

In [1], DP47 P329G LALA (antibody) registered an EC50, Jurkat NFAT luciferase reporter (RLU/s), WSUDLCL2 target cells 5:1, non-targeting antibody; the curve stays at about 60 to 90 RLU/s (no activation), so the fitted value has no meaning of 293 pM. In assay [2], the EC50, Jurkat NFAT luciferase reporter (RLU/s), WSUDLCL2 target cells 5:1, non-targeting antibody; flat at about 90 RLU/s with a small rise to about 190 RLU/s at the last point, no plateau was found to be 43200 pM. In addition, the EC50, Jurkat NFAT luciferase reporter (RLU/s), WSUDLCL2 target cells 5:1, non-targeting antibody; the curve stays at about 60 to 110 RLU/s (no activation), so the fitted value has no meaning in [3] turned out to be 7420 pM.

On to “anti-CD20 (GA101) D246A P329G IgG1 (antibody)”, for which the EC50, Jurkat NFAT luciferase reporter (RLU/s), WSUDLCL2 target cells 5:1; sigmoid curve with upper plateau came to 8.14 pM in assay [4], 10.4 pM in [5], 5.82 pM in assay [6] and 6.19 pM in assay [7].

Take anti-CD20 (GA101) LALA IgG1 (antibody): the EC50, Jurkat NFAT luciferase reporter (RLU/s), WSUDLCL2 target cells 5:1; the curve is flat (no activation), so the fitted value has no meaning in [8] came out at 0.0485 pM; in assay [9] it was 0.000234 pM.

As to “anti-CD20 (GA101) P329G LALA IgG1 (antibody)”, the EC50, Jurkat NFAT luciferase reporter (RLU/s), WSUDLCL2 target cells 5:1; sigmoid curve with upper plateau was 8.1 pM in assay [10], 6.93 pM in assay [11], 7.57 pM in [12] and 6.58 pM in assay [13].

With “anti-CD20 (GA101) wild type IgG1 (antibody)”, the EC50, Jurkat NFAT luciferase reporter (RLU/s), WSUDLCL2 target cells 5:1; the curve is flat (no activation), so the fitted value has no meaning in [14] stood at 2.19 pM; in assay [15], 0.000119 pM; in assay [16] it was 85 pM; in assay [17], 78.3 pM.
